Experimental data as given in patent publication US20240132615A1 (ICHNOS SCIENCES, published 2024).

B1: Anti-CD38-UCP02-A7 Fab (Fab, V domains shown)
VH: EVQLLESGGGLVQPGGSLRLSCAASGFTFSFYDMSWVRQAPGKGLEWVSTITLHGGDTYYADSVKGRFTISRDNSKNTLYLQMNSLRAEDTAVYYCARDPSYIYSTSGYFDYWGQGTLVTVSS
VL: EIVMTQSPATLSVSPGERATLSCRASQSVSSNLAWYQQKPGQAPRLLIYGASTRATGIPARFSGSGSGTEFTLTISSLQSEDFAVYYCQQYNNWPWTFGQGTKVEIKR
notes: Fab
B2: Anti-CD38-UCP02-B1 Fab (Fab, V domains shown)
VH: QVQLVQSGAEVKKPGSSVKVSCKASGGQFSFYAINWVRQAPGQGLEWMGEIIPDYGVTHYAQKFQGRVTITADESTSTAYMELSSLRSEDTAVYYCARWSYTYGIRYYYKLFDPWGQGTLVTVSS
VL: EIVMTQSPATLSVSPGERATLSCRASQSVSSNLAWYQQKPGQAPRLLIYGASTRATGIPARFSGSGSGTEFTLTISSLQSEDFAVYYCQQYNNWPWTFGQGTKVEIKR
notes: Fab
B3: Anti-CD3-UCP07-E2 IgG1LALA (antibody, V domains shown)
VH: EVQLLESGGGLVQPGGSLRLSCAASGFPFSNYAMSWVRQAPGKGLEWVSAISRKGGFTEYADSVKGRFTISRDNSKNTLYLQMNSLRAEDTAVYYCARASYLGGFAYWGQGTLVTVSS
VL: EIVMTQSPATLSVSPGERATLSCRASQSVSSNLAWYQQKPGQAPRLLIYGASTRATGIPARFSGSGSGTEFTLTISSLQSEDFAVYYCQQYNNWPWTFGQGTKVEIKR
notes: IgG1 LALA
B4: Anti-CD3-UCP05-F1 IgG1LALA (antibody, V domains shown)
VH: EVQLLESGGGLVQPGGSLRLSCAASGFTFRHYAMTWVRQAPGKGLEWVSAITQRGGYTYYADSVKGRFTISRDNSKNTLYLQMNSLRAEDTAVYYCARAGPSGGGFDYWGQGTLVTVSS
VL: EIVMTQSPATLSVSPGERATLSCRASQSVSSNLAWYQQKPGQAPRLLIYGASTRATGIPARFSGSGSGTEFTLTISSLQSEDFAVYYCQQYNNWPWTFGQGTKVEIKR
notes: IgG1 LALA
B5: Anti-CD3-UCP05-A2 IgG1LALA (antibody, V domains shown)
VH: EVQLLESGGGLVQPGGSLRLSCAASGFSFKIYAMGWVRQAPGKGLEWVSAITQQGGATVYADSVKGRFTISRDNSKNTLYLQMNSLRAEDTAVYYCARPGDLGGGFDIWGQGTLVTVSS
VL: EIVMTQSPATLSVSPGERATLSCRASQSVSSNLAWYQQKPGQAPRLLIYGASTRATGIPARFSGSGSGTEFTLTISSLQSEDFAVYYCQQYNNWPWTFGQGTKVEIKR
notes: IgG1 LALA
B6: Anti-CD3-UCP07-D1 IgG1LALA (antibody, V domains shown)
VH: EVQLLESGGGLVQPGGSLRLSCAASGFNFNINVMSWVRQAPGKGLEWVSAISQSGGYTLYADSVKGRFTISRDNSKNTLYLQMNSLRAEDTAVYYCARASPYGGGFDYWGQGTLVTVSS
VL: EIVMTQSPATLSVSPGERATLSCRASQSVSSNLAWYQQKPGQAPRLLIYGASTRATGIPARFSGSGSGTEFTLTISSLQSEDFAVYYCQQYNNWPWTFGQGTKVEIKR
notes: IgG1 LALA
B7: Anti-CD3-UCP07-F2 IgG1LALA (antibody, V domains shown)
VH: QVQLVQSGAEVKKPGSSVKVSCKASGGKFNKYVIGWVRQAPGQGLEWMGGVIPLKGQSKYAQKFQGRVTITADESTSTAYMELSSLRSEDTAVYYCARGRYYGDYSWKFDYWGQGTLVTVSS
VL: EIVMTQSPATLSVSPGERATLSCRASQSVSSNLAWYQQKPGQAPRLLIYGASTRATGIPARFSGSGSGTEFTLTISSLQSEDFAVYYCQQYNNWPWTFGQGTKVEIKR
notes: IgG1 LALA
B8: Anti-CD3-UCP02-A3 IgG1LALA (antibody, V domains shown)
VH: EVQLVESGGGLIQPGGSLRLSCAASGFTFRRYYMTWVRQAPGKGLEWVSVIFPQGGTSYADSVKGRFTISRDNSKNTLYLQMNSLRAEDTAVYYCARVHDVLDDVEWFDHWGQGTLVTVSS
VL: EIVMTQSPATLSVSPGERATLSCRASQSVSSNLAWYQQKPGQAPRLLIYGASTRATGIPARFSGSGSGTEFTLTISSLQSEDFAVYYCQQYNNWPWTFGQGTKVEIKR
notes: IgG1 LALA
B9: Anti-CD3-UCP03-C1 IgG1LALA (antibody, V domains shown)
VH: EVQLLESGGGLVQPGGSLRLSCAASGFTFSQYAMSWVRQAPGKGLEWVSVISPSGATAVYADSVKGRFTISRDNSKNTLYLQMNSLRAEDTAVYYCARGQYDDLDKSGYEFDHWGQGTLVTVSS
VL: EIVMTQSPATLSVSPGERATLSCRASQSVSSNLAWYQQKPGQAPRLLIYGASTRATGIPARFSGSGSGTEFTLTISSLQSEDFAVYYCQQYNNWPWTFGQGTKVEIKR
notes: IgG1 LALA
B10: Anti-CD3-UCP07-C3 IgG1LALA (antibody, V domains shown)
VH: QVQLVQSGAEVKKPGSSVKVSCKASGGSFSRYAIGWVRQAPGQGLEWMGGIIPDVGIAFYAQKFQGRVTITADESTSTAYMELSSLRSEDTAVYYCAREYHYVGAFDIWGQGTLVTVSS
VL: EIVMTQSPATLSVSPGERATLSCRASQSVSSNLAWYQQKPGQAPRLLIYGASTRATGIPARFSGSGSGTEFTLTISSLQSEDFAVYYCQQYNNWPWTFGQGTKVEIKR
notes: IgG1 LALA
B11: Anti-CD3-UCP06-A1 IgG1LALA (antibody, V domains shown)
VH: QVQLVQSGAEVKKPGSSVKVSCKASGGHFRGYGISWVRQAPGQGLEWMGEIIPLRGFTIYAQKFQGRVTITADESTSTAYMELSSLRSEDTAVYYCARGSYVDSSYYYYDGFDVWGQGTLVTVSS
VL: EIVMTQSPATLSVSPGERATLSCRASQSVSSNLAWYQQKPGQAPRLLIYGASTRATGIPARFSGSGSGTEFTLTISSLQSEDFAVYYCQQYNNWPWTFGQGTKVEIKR
notes: IgG1 LALA
B12: Anti-CD3-UCP05-G2 IgG1LALA (antibody, V domains shown)
VH: QVQLVQSGAEVKKPGSSVKVSCKASGGVFNFYAISWVRQAPGQGLEWMGGITPDGGFVKYAQKFQGRVTITADESTSTAYMELSSLRSEDTAVYYCARSPVSLYYGKYYVYYGAFDVWGQGTLVTVSS
VL: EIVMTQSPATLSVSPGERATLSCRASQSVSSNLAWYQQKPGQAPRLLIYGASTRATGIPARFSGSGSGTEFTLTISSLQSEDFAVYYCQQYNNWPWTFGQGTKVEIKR
notes: IgG1 LALA
B13: Anti-CD3-UCP02-B2 IgG1LALA (antibody, V domains shown)
VH: EVQLLESGGGLVQPGGSLRLSCAASGFTFSHYVLNWVRQAPGKGLEWVSGISLTGIATIYADSVKGRFTISRDNSKNTLYLQMNSLRAEDTAVYYCARGDPTSAFDVWGQGTLVTVSS
VL: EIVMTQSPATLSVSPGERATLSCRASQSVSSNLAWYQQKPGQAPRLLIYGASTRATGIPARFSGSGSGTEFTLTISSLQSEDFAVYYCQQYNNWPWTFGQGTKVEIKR
notes: IgG1 LALA
B14: Anti-CD3-UCP07-A3 IgG1LALA (antibody, V domains shown)
VH: EVQLLESGGGLVQPGGSLRLSCAASGVSFREYVMAWVRQAPGKGLEWVSVISQYGGNTYYADSVKGRFTISRDNSKNTLYLQMNSLRAEDTAVYYCARSGGSVPFDYWGQGTLVTVSS
VL: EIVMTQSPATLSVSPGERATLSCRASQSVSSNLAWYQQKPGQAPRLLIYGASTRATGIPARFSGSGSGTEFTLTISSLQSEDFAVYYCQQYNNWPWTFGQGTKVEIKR
notes: IgG1 LALA
B15: Anti-CD3-UCP03-G2 IgG1LALA (antibody, V domains shown)
VH: QVQLVQSGAEVKKPGSSVKVSCKASGYGFNLYAINWVRQAPGQGLEWMGRIIPEYGHTRYAQKFQGRVTITADESTSTAYMELSSLRSEDTAVYYCARDRYSTYSGGMDYWGQGTLVTVSS
VL: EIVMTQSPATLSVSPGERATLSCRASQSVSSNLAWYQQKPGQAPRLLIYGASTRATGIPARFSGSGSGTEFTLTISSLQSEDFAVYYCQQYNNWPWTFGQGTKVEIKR
notes: IgG1 LALA
B16: Anti-CD3-UCP03-F1 IgG1LALA (antibody, V domains shown)
VH: EVQLLESGGGLVQPGGSLRLSCAASGFPFSHHVMTWVRQAPGKGLEWVSAITQRGEYTLYADSVKGRFTISRDNSKNTLYLQMNSLRAEDTAVYYCARGPVPGGDHAFDYWGQGTLVTVSS
VL: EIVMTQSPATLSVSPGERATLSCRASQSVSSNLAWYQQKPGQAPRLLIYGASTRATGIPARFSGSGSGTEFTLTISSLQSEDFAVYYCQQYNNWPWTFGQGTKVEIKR
notes: IgG1 LALA
B17: Anti-CD3-UCP03-E2 IgG1LALA (antibody, V domains shown)
VH: EVQLVESGGGLIQPGGSLRLSCAASGISVGNNYMSWVRQAPGKGLEWVSVIYPNGRIKYADSVKGRFTISRDNSKNTLYLQMNSLRAEDTAVYYCARGVIDGSYLDFAYWGQGTLVTVSS
VL: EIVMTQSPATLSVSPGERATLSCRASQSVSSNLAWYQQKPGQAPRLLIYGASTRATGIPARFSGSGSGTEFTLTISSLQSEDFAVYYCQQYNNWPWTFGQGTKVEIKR
notes: IgG1 LALA
B18: Anti-CD3-UCP03-F2 IgG1LALA (antibody, V domains shown)
VH: EVQLLESGGGLVQPGGSLRLSCAASGFAFSHYAMTWVRQAPGKGLELVSAISQHGGYTAYADSVKGRFTISRDNSKNTLYLQMNSLRAEDTAVYYCARGHPVHAFDFWGQGTLVTVSS
VL: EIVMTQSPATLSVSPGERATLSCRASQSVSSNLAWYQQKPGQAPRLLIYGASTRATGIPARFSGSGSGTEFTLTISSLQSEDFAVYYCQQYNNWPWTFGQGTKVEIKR
notes: IgG1 LALA
B19: Anti-CD3-UCP03-H2 IgG1LALA (antibody, V domains shown)
VH: EVQLVESGGGLIQPGGSLRLSCAASGFTVRDSYMHWVRQAPGKGLEWVSIIYYTGKTHYADSVKGRFTISRDNSKNTLYLQMNSLRAEDTAVYYCARSQYGYFDYWGQGTLVTVSS
VL: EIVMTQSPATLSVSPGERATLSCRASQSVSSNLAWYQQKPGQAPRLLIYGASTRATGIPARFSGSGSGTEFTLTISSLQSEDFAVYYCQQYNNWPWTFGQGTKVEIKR
notes: IgG1 LALA
B20: Anti-CD3-UCP03-A3 IgG1LALA (antibody, V domains shown)
VH: EVQLLESGGGLVQPGGSLRLSCAASGFTFSSNAMSWVRQAPGKGLEWVSAVGKYGGATSYADSVKGRFTISRDNSKNTLYLQMNSLRAEDTAVYYCARGGPGYSTFYEFDNWGQGTLVTVSS
VL: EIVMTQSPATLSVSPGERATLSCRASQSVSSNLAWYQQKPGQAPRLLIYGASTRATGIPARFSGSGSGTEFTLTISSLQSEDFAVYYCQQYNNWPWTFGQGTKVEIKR
notes: IgG1 LALA
B21: Anti-CD3-UCP05-H2 IgG1LALA (antibody, V domains shown)
VH: QVQLVQSGAEVKKPGSSVKVSCKASGGGFSHYALNWVRQAPGQGLEWMGGIIPLTGKTAYAQKFQGRVTITADESTSTAYMELSSLRSEDTAVYYCARKISSARDYWGQGTLVTVSS
VL: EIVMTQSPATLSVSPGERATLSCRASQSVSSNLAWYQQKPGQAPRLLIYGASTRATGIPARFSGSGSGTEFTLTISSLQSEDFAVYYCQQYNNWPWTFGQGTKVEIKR
notes: IgG1 LALA
B22: Anti-CD3-UCP05-A1 IgG1LALA (antibody, V domains shown)
VH: EVQLLESGGGLVQPGGSLRLSCAASGFTFSTYAMSWVRQAPGKGLELVSAISRHGGFSRYADSVKGRFTISRDNSKNTLYLQMNSLRAEDTAVYYCARASSYGYDPWGQGTLVTVSS
VL: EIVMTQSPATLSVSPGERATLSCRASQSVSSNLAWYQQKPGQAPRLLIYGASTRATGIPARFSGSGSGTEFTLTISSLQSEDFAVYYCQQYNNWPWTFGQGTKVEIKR
notes: IgG1 LALA
B23: Anti-CD3-UCP05-H1 IgG1LALA (antibody, V domains shown)
VH: EVQLLESGGGLVQPGGSLRLSCAASGFAFSNSAMSWVRQAPGKGLELVSAISTKGGKTLYADSVKGRFTISRDNSKNTLYLQMNSLRAEDTAVYYCARSSPYGFDYWGQGTLVTVSS
VL: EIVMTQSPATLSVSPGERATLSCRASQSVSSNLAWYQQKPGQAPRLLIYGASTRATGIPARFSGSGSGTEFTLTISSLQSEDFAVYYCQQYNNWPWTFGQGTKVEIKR
notes: IgG1 LALA
B24: Anti-CD3-UCP03-B1 IgG1LALA (antibody, V domains shown)
VH: EVQLLESGGGLVQPGGSLRLSCAASGFTFSRYAMTWVRQAPGKGLEWVSGISKYGGATAYADSVKGRFTISRDNSKNTLYLQMNSLRAEDTAVYYCARGGTRFDIWGQGTLVTVSS
VL: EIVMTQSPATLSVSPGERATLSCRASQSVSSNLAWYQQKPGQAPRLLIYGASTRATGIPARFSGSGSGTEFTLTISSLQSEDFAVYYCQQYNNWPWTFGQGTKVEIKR
notes: IgG1 LALA
B25: Anti-CD3-UCP07-A1 IgG1LALA (antibody, V domains shown)
VH: EVQLVESGGGLVKPGGSLRLSCAASGFTFSDYAVNWVRQAPGKGLEWVGRIKSKNEGGTGYAAPVKGRFTISRDDSKNTLYLQMNSLKTEDTAVYYCAREPSYYRDGAADYWGQGTLVTVSS
VL: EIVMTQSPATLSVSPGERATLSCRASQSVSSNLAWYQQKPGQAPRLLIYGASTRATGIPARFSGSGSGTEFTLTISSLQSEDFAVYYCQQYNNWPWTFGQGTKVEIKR
notes: IgG1 LALA
B26: Anti-CD3-UCP02-D2 IgG1LALA (antibody, V domains shown)
VH: EVQLVESGGGLVKPGGSLRLSCAASGFTFNKAWMGWVRQAPGKGLEWVGRIKSVTDGGITVYAAPVKGRFTISRDDSKNTLYLQMNSLKTEDTAVYYCARVTARYYYFDNWGQGTLVTVSS
VL: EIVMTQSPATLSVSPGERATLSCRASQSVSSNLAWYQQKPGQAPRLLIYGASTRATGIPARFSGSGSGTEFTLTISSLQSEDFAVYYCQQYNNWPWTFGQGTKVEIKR
notes: IgG1 LALA
B27: Anti-CD3-UCP07-E1 IgG1LALA (antibody, V domains shown)
VH: EVQLLESGGGLVQPGGSLRLSCAASGFTFSRNAMNWVRQAPGKGLEWVSSISRIGGFTIYADSVKGRFTISRDNSKNTLYLQMNSLRAEDTAVYYCARVGSGGKAFDVWGQGTLVTVSS
VL: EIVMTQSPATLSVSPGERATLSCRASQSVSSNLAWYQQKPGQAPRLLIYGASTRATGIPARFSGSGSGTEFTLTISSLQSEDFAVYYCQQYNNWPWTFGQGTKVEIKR
notes: IgG1 LALA
B28: Anti-CD3-UCP07-B3 IgG1LALA (antibody, V domains shown)
VH: EVQLVESGGGLVKPGGSLRLSCAASGFDFNAAWMTWVRQAPGKGLEWVGRIKSEKNGGKSVYAAPVKGRFTISRDDSKNTLYLQMNSLKTEDTAVYYCARGGRLSSYFDPWGQGTLVTVSS
VL: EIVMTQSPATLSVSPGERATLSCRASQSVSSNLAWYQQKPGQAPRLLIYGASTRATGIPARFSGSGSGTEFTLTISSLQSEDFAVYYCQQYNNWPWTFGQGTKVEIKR
notes: IgG1 LALA
B29: Anti-CD3-UCP05-D2 IgG1LALA (antibody, V domains shown)
VH: EVQLLESGGGLVQPGGSLRLSCAASGFTFNIYALGWVRQAPGKGLEWVSAISQNGGYTLYADSVKGRFTISRDNSKNTLYLQMNSLRAEDTAVYYCARLRGGSGMDVWGQGTLVTVSS
VL: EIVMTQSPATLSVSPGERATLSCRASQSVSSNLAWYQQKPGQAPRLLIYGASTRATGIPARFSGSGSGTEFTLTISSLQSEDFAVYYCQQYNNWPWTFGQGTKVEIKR
notes: IgG1 LALA
B30: Anti-CD3-UCP05-C1 IgG1LALA (antibody, V domains shown)
VH: QVQLVQSGAEVKKPGSSVKVSCKASGGRFSRQALTWVRQAPGQGLEWMGGIIPDHGRPIYAQKFQGRVTITADESTSTAYMELSSLRSEDTAVYYCARGKGGSVAGWKFDVWGQGTLVTVSS
VL: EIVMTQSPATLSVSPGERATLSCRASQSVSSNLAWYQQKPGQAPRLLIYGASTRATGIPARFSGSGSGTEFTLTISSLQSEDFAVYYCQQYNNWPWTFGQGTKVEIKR
notes: IgG1 LALA
B31: Anti-CD3-UCP03-C5 IgG1LALA (antibody, V domains shown)
VH: EVQLVESGGGLIQPGGSLRLSCAASGFTVSDNDMSWVRQAPGKGLEWVSLIYSNGGTHYADSVKGRFTISRDNSKNTLYLQMNSLRAEDTAVYYCARWGISLGEPYFDYWGQGTLVTVSS
VL: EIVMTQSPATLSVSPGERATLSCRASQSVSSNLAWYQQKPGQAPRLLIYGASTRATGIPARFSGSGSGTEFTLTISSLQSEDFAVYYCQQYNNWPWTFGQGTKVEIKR
notes: IgG1 LALA

Biological target: T1, Biotinylated Human CD38 Protein, Avitag, His Tag (Acrobiosystems CD8-H82E7) (human, UniProt P28907 43-300, biotinylated)
T1 construct: bought protein; also called biotinylated recombinant human CD38 protein; human CD38-avi-his
Assay: SPR, Fab as analyte, immobilised biotinylated human CD38;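 further: biacore T200 at 25 °C, single-cycle kinetics with Fab from 7.8 to 2000 nM, 3 min association then 5 min dissociation, fitted with a 1:1 Langmuir model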

Kd, 595 nM:
B2

Kd, 71.1 nM:
B1

Biological target: T2, human CD3 on cells (HPB-ALL cells, primary human T cells) (human, UniProt P07766 23-207)
T2 construct: whole, on cells; only the epsilon chain is written
Assay: flow cytometry, HPB-ALL WT;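 further: binding read by flow cytometry as PE geometric mean fluorescence intensity on live single cells, dead cells excluded with SYTOX Green, only samples with at least 200 gated cells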

T2 sequence (P07766 23-207): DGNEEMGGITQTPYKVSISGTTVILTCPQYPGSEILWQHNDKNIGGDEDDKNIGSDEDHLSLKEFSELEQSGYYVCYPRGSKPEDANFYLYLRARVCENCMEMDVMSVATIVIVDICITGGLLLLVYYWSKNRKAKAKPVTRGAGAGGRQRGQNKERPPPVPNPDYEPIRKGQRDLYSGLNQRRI

Binding result, no binding (tested: 800 nM):
B3
B4
B5
B6
B7
B8
B9
B10
B11
B12
B13
B14
B15
B16
B17
B18
B19
B20
B21
B22
B23
B24
B25
B26
B27
B28
B29
B30
B31
